Measurements published in paper PMC5727259, “Voltage-gated sodium channels assemble and gate as dimers” (Nature Communications, 2017).

Molecular target: the molecule itself
Assay: single-molecule pull-down (SiMPull) with GFP photobleaching step counting; lysate of transfected HEK293 cells (0.4% CHAPS buffer) perfused over anti-GFP antibody on passivated coverslips; low surface density (0.05 molecules/µm^2); TIRF imaging

B1: GFP-tagged chloride channel ClC-3 (natural protein, UniProt P51790 1-818, looked up)
chain: MESEQLFHRGYYRNSYNSITSASSDEELLDGAGVIMDFQTSEDDNLLDGDTAVGTHYTMTNGGSINSSTHLLDLLDEPIPGVGTYDDFHTIDWVREKCKDRERHRRINSKKKESAWEMTKSLYDAWSGWLVVTLTGLASGALAGLIDIAADWMTDLKEGICLSALWYNHEQCCWGSNETTFEERDKCPQWKTWAELIIGQAEGPGSYIMNYIMYIFWALSFAFLAVSLVKVFAPYACGSGIPEIKTILSGFIIRGYLGKWTLMIKTITLVLAVASGLSLGKEGPLVHVACCCGNIFSYLFPKYSTNEAKKREVLSAASAAGVSVAFGAPIGGVLFSLEEVSYYFPLKTLWRSFFAALVAAFVLRSINPFGNSRLVLFYVEYHTPWYLFELFPFILLGVFGGLWGAFFIRANIAWCRRRKSTKFGKYPVLEVIIVAAITAVIAFPNPYTRLNTSELIKELFTDCGPLESSSLCDYRNDMNASKIVDDIPDRPAGIGVYSAIWQLCLALIFKIIMTVFTFGIKVPSGLFIPSMAIGAIAGRIVGIAVEQLAYYHHDWFIFKEWCEVGADCITPGLYAMVGAAACLGGVTRMTVSLVVIVFELTGGLEYIVPLMAAVMTSKWVGDAFGREGIYEAHIRLNGYPFLDAKEEFTHTTLAADVMRPRRNDPPLAVLTQDNMTVDDIENMINETSYNGFPVIMSKESQRLVGFALRRDLTIAIESARKKQEGIVGSSRVCFAQHTPSLPAESPRPLKLRSILDMSPFTVTDHTPMEIVVDIFRKLGLRQCLVTHNGRLLGIITKKDILRHMAQTANQDPASIMFN
notes: chloride channel ClC-3 from plasmid pCLC3sGFP (Addgene); also called ClC-3-GFP; pCLC3sGFP; source: HEK293, transfected, in lysate (CHAPS buffer)
B1 was tested, and the “stoichiometry N” value was 2.

B2: transient outward potassium channel Kv4.3 tagged with GFP (natural protein, UniProt Q9UK17 1-655, looked up)
chain: MAAGVAAWLPFARAAAIGWMPVANCPMPLAPADKNKRQDELIVLNVSGRRFQTWRTTLERYPDTLLGSTEKEFFFNEDTKEYFFDRDPEVFRCVLNFYRTGKLHYPRYECISAYDDELAFYGILPEIIGDCCYEEYKDRKRENAERLMDDNDSENNQESMPSLSFRQTMWRAFENPHTSTLALVFYYVTGFFIAVSVITNVVETVPCGTVPGSKELPCGERYSVAFFCLDTACVMIFTVEYLLRLFAAPSRYRFIRSVMSIIDVVAIMPYYIGLVMTNNEDVSGAFVTLRVFRVFRIFKFSRHSQGLRILGYTLKSCASELGFLLFSLTMAIIIFATVMFYAEKGSSASKFTSIPASFWYTIVTMTTLGYGDMVPKTIAGKIFGSICSLSGVLVIALPVPVIVSNFSRIYHQNQRADKRRAQKKARLARIRVAKTGSSNAYLHSKRNGLLNEALELTGTPEEEHMGKTTSLIESQHHHLLHCLEKTTGLSYLVDDPLLSVRTSTIKNHEFIDEQMFEQNCMESSMQNYPSTRSPSLSSHPGLTTTCCSRRSKKTTHLPNSNLPATRLRSMQELSTIHIQGSEQPSLTTSRSSLNLKADDGLRPNCKTSQITTAIISIPTPPALTPEGESRPPPASPGPNTNIPSIASNVVKVSAL
notes: potassium channel Kv4.3 from plasmid pcDNA3.1-Kv4.3-GFP; also called Kv4.3-GFP; pcDNA3.1-Kv4.3-GFP; source: HEK293, transfected, in lysate (CHAPS buffer)
B2 was tested, and the “stoichiometry N” value was 4.
